Measurements published in publication PMC4155688, “Mapping the Putative G Protein-coupled Receptor (GPCR) Docking Site on GPCR Kinase 2” (The Journal of Biological Chemistry, 2014).
Where a chain is given by its changes, count along the chain named.

T1: α2AAR-GFP^2 (UniProt P08913 1-465)
T1 construct: α2A-adrenergic receptor; also called α2A-adrenergic receptor; source: HEK293T, transfected, in living cells; not shown: GFP^2, C-terminal (from the name α2AAR-GFP^2), kept
T1 sequence (looked up): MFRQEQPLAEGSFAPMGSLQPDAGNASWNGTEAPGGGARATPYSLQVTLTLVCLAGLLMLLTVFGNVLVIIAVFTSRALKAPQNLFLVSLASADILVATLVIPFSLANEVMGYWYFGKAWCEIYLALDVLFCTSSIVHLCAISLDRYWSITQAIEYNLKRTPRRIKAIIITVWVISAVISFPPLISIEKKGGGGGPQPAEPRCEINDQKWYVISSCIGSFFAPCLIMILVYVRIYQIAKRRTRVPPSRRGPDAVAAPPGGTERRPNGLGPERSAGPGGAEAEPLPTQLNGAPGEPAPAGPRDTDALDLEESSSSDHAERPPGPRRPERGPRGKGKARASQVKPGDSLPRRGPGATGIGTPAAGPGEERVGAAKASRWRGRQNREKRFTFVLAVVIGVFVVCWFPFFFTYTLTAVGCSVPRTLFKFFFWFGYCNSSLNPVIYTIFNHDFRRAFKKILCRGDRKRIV

B1: RlucII-GRK2 S12A (enzyme, human, UniProt P25098 1-689, looked up)
chain: MADLEAVLADVAYLMAMEKSKATPAARASKKILLPEPSIRSVMQKYLEDRGEVTFEKIFSQKLGYLLFRDFCLNHLEEARPLVEFYEEIKKYEKLETEEERVARSREIFDSYIMKELLACSHPFSKSATEHVQGHLGKKQVPPDLFQPYIEEICQNLRGDVFQKFIESDKFTRFCQWKNVELNIHLTMNDFSVHRIIGRGGFGEVYGCRKADTGKMYAMKCLDKKRIKMKQGETLALNERIMLSLVSTGDCPFIVCMSYAFHTPDKLSFILDLMNGGDLHYHLSQHGVFSEADMRFYAAEIILGLEHMHNRFVVYRDLKPANILLDEHGHVRISDLGLACDFSKKKPHASVGTHGYMAPEVLQKGVAYDSSADWFSLGCMLFKLLRGHSPFRQHKTKDKHEIDRMTLTMAVELPDSFSPELRSLLEGLLQRDVNRRLGCLGRGAQEVKESPFFRSLDWQMVFLQKYPPPLIPPRGEVNAADAFDIGSFDEEDTKGIKLLDSDQELYRNFPLTISERWQQEVAETVFDTINAETDRLEARKKAKNKQLGHEEDYALGKDCIMHGYMSKMGNPFLTQWQRRYFYLFPNRLEWRGEGEAPQSLLTMEEIQSVEETQIKERKCLLLKIRGGKQFILQCDSDPELVQWKKELRDAYREAQQLVQRVPKMKNKPRSPVVELSKVPLVQRGSANGL
notes: GRK2, human; source: HEK293T, transfected, in living cells
B2: RlucII-GRK2 Y13A (enzyme, human, UniProt P25098 1-689, looked up)
chain: B1 chain with A12S, Y13A
notes: as for B1

How the values were obtained:
α2AAR-GFP^2 [1] = molecular target: T1, α2AAR-GFP^2; assay: FRET or BRET; living HEK293T cells co-transfected with α2AAR-GFP^2 and RlucII-GRK2; dose-response to norepinephrine read 6 min after addition; NOR-promoted BRET fitted to biphasic (two-site) curves with a high-affinity and a low-affinity component; conditions: partners not purified
α2AAR-GFP^2 [2] = molecular target: T1, α2AAR-GFP^2; assay: FRET or BRET; living HEK293T cells co-transfected with α2AAR-GFP^2 (acceptor) and RlucII-GRK2 (donor); in PBS at room temperature, with or without 100 μM norepinephrine (one-point and titration: 6 min; time course); coelenterazine 400A 5 μM; net or agonist-promoted BRET; conditions: partners not purified

Row | Binder | fold stimulation of the low-affinity BRET component relative to WT (α2AAR-GFP^2 [1]) | fold potentiation of the total agonist-induced BRET relative to WT (α2AAR-GFP^2 [2]) | percent reduction of the low-affinity BRET component relative to WT (α2AAR-GFP^2 [1]) | percent reduction of the agonist-promoted BRET relative to WT (α2AAR-GFP^2 [2])
1 | B1 | 2.6 fold | 2 fold |  | 
2 | B2 |  |  | ~70% | ~55%
